What is called EC50 is the concentration needed to bring the measured effect to its halfway point. The Kd is a measure of binding affinity in units of concentration. As a reminder, the koff is the rate constant with which the complex falls apart. As usually defined, the kon is the rate constant with which the complex forms.

In assay [1] the target is T1, human CLEC4A (human, UniProt Q9UMR7 70-237, limits assumed).
T1 sequence (looked up): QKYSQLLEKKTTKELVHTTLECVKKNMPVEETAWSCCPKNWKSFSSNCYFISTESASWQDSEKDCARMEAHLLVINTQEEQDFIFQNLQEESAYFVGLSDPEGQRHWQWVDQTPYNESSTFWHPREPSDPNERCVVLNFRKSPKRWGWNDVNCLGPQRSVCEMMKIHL
Briefly: ELISA, coated protein 1 µg/ml. (In general: An ELISA detects its analyte on a solid surface through an enzyme-linked reagent.)

The target in assay [2] is T2, human CLEC4D (human, UniProt Q8WXI8 39-215, limits assumed).
T2 sequence (looked up): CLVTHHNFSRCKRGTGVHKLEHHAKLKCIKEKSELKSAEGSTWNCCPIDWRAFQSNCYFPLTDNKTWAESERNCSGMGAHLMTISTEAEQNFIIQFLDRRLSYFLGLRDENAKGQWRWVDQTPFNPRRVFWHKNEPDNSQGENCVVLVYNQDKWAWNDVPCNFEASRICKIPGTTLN
As to the kind of experiment: ELISA, coated protein 1 µg/ml.

Assay [3] addresses T3, human CLEC4E (human, UniProt Q9ULY5 41-219, limits assumed).
T3 sequence (looked up): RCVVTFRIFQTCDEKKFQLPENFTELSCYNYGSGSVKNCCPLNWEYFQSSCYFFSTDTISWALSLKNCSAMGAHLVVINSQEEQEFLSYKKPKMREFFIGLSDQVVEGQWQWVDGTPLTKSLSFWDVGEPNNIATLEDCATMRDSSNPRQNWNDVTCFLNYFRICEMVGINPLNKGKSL
As to the kind of experiment: ELISA, coated protein 1 µg/ml.

The target in assay [4] is T4, human CLEC6A (human, UniProt Q6EIG7 42-209, limits assumed).
T4 sequence (looked up): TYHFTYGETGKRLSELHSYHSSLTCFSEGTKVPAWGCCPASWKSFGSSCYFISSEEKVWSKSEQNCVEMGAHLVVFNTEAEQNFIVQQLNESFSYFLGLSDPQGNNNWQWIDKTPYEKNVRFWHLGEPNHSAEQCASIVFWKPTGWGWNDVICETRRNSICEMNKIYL
Briefly: ELISA, coated protein 1 µg/ml.

Assay [5] concerns the target T5, human BDCA-2 on cells (Jurkat-hBDCA-2 cells; human pDCs; human PBMCs) (human, UniProt Q8WTT0 1-213).
T5 construct: whole, on cells; also called CD303; CLEC4C
T5 sequence (looked up): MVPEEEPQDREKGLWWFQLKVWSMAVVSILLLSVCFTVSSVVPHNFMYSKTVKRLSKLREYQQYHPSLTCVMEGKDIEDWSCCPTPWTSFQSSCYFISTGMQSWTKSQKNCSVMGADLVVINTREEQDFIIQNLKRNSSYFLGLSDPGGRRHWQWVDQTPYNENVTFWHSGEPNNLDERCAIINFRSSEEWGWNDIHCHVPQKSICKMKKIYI
As to the kind of experiment: flow cytometry on Jurkat-hBDCA-2 cells. Background: In flow cytometry, cells or beads pass a laser one at a time.

The target of assay [6] is T5, human BDCA-2 on cells (Jurkat-hBDCA-2 …). Briefly: cell-based or functional assay.
Assay [7] deals with T6, cynomolgus monkey BDCA-2 on cells (Jurkat-cynoBDCA-2 cells; cynomolgus monkey pDCs) (cynomolgus monkey, UniProt A0A2K5UWP4 1-212).
T6 construct: whole, on cells
T6 sequence: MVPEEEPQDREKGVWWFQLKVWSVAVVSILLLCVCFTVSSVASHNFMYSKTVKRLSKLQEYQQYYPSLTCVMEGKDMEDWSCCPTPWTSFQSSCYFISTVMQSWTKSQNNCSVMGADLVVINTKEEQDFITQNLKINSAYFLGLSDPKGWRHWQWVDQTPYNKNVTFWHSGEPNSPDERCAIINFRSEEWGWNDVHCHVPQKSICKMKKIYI
As to the kind of experiment: flow cytometry on Jurkat-cynoBDCA-2 cells.

Assay [8] addresses T7, Human BDCA-2 protein (soluble, Octet analyte) (human, UniProt Q8WTT0 45-213, limits assumed).
T7 construct: Soluble protein used as analyte in BLI
T7 sequence (looked up): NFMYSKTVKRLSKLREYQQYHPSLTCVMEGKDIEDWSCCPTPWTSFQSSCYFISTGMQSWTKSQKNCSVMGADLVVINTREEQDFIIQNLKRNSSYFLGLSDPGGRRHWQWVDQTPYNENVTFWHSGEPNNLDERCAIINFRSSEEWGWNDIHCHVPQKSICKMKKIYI
As to the kind of experiment: BLI (Octet Red96e), antibody on anti-human IgG sensor, human BDCA-2 protein in solution. For orientation: Biolayer interferometry detects binding as a change in optical thickness at a sensor tip.

B1: 17G6A2_hzH2L5_hIgG1 (antibody, V domains shown)
VH: EVQLVESGGGLVKPGGSLRLSCAASGFTFSSYGMSWVRQAPGKGLEWVATISSGDSYTYYPDSVKGRFTISRDNAKNSLYLQMNSLRAEDTAVYYCARQLYYSYGYYFDYWGQGTTVTVSS
VL: DIVLTQSPASLAVSPGQRATITCRASESVSFHGTHLMHWYQQKPGQPPKLLIYAASNLESGVPARFSGSGSGTDFTLTINPVEAEDTANYYCQQSIEDPPTFGGGTKVEIKR
notes: Humanized, human IgG1/kappa (hzVH02 + hzVL05)
Consider B1, for which the binding result in assay [1], in assay [2], in assay [3] and in assay [4] was “no binding (tested: 10 µg/ml)” in each case. In addition, the figures for the EC50 in assay [5] and in assay [7] were 0.18 µg/mL and 0.0943 µg/mL, respectively. In assay [6], the “EC50, inhibition of CpGA-induced type I interferon (IFNα) production in human PBMC cells” value (“EC50, inhibition” below) is 0.0014 µg/mL. Further, binding in assay [8] was put at a Kd of 3.2 nM. In assay [8], this molecule showed a koff of 0.000567 s⁻¹. Further, the kon in assay [8] is 176000 M⁻¹ s⁻¹.

B2: 17G6A2_hzH3L7_hIgG1 (antibody, V domains shown)
VH: EVQLVESGGGLVKPGGSLRLSCAASGFTFSSYGMSWVRQAPGKRLEWVATISSGDSYTYYPDSVKGRFTISRDNAKNSLYLQMNSLRAEDTAVYYCARQLYYSYGYYFDYWGQGTTVTVSS
VL: DIVLTQSPASLAVSPGQRATITCRASESVSFHGTHLMHWYQQKPGQPPKLLIYAASNLESGVPARFSGSGSETDFTLTINPVEAEDTANYYCQQSIEDPPTFGGGTKVEIKR
notes: Humanized, human IgG1/kappa (hzVH03 + hzVL07)
For the molecule B2, the binding result in assay [1], in assay [2], in assay [3] and in assay [4] was “no binding (tested: 10 µg/ml)” in each case. Also, the values for the EC50 in assay [5] and in assay [7] were 0.0583 µg/mL and 0.0975 µg/mL, respectively. Besides, the “EC50, inhibition” value in assay [6] came to 0.0011 µg/mL.

B3: 17G6A2_hzH3L8_hIgG1 (antibody, V domains shown)
VH: EVQLVESGGGLVKPGGSLRLSCAASGFTFSSYGMSWVRQAPGKRLEWVATISSGDSYTYYPDSVKGRFTISRDNAKNSLYLQMNSLRAEDTAVYYCARQLYYSYGYYFDYWGQGTTVTVSS
VL: DIVLTQSPASLAVSPGQRATITCRASESVSFHGTHLMHWYQQKPGQPPKLLIYAASNLESGVPARFSGSGSETDFTLTINPVEANDAANYYCQQSIEDPPTFGGGTKVEIKR
notes: Humanized, human IgG1/kappa (hzVH03 + hzVL08)
Take B3: the binding result in assay [1], in assay [2], in assay [3] and in assay [4] was “no binding (tested: 10 µg/ml)” each time. Besides, the EC50 in assay [5] turned out to be 0.0456 µg/mL; in assay [7], 0.0688 µg/mL. Further, in assay [6], the “EC50, inhibition” value was 0.0011 µg/mL.

B4: 17G6A2_hzH3L5_hIgG1 (antibody, V domains shown)
VH: EVQLVESGGGLVKPGGSLRLSCAASGFTFSSYGMSWVRQAPGKRLEWVATISSGDSYTYYPDSVKGRFTISRDNAKNSLYLQMNSLRAEDTAVYYCARQLYYSYGYYFDYWGQGTTVTVSS
VL: DIVLTQSPASLAVSPGQRATITCRASESVSFHGTHLMHWYQQKPGQPPKLLIYAASNLESGVPARFSGSGSGTDFTLTINPVEAEDTANYYCQQSIEDPPTFGGGTKVEIKR
notes: Humanized, human IgG1/kappa (hzVH03 + hzVL05)
Consider B4, for which the binding result in assay [1], in assay [2], in assay [3] and in assay [4] was “no binding (tested: 10 µg/ml)” in each case. Besides, the EC50 was 0.066 µg/mL in assay [5] and 0.101 µg/mL in assay [7]. For the same molecule, in assay [6], the “EC50, inhibition” value is 0.0014 µg/mL.

B5: 17G6A2_hzH1L8_hIgG1 (antibody, V domains shown)
VH: EVQLVESGGGLVKPGGSLRLSCAASGFTFSSYGMSWVRQAPGKGLEWVSTISSGDSYTYYPDSVKGRFTISRDNAKNSLYLQMNSLRAEDTAVYYCARQLYYSYGYYFDYWGQGTTVTVSS
VL: DIVLTQSPASLAVSPGQRATITCRASESVSFHGTHLMHWYQQKPGQPPKLLIYAASNLESGVPARFSGSGSETDFTLTINPVEANDAANYYCQQSIEDPPTFGGGTKVEIKR
notes: Humanized, human IgG1/kappa (hzVH01 + hzVL08); also called 17G6A2_hzHL8_hIgG1
Turning to B5, the binding result in assay [1], in assay [2], in assay [3] and in assay [4] was “no binding (tested: 10 µg/ml)” throughout. In addition, the 50% effective concentration (EC50) in assay [5] is 0.0442 µg/mL; in assay [7] it was 0.0781 µg/mL. Besides, the “EC50, inhibition” value in assay [6] came to 0.0011 µg/mL. Besides, in assay [8], the Kd is 6.3 nM. The same molecule registered a koff in assay [8] of 0.000872 s⁻¹. In assay [8], this molecule gave a kon of 138000 M⁻¹ s⁻¹.

B6: 17G6A2_hzH3L6_hIgG1 (antibody, V domains shown)
VH: EVQLVESGGGLVKPGGSLRLSCAASGFTFSSYGMSWVRQAPGKRLEWVATISSGDSYTYYPDSVKGRFTISRDNAKNSLYLQMNSLRAEDTAVYYCARQLYYSYGYYFDYWGQGTTVTVSS
VL: DIVLTQSPASLAVSPGQRATITCRASESVSFHGTHLMHWYQQKPGQPPKLLIYAASNLESGVPARFSGSGSGTDFTLTINPVEANDAANYYCQQSIEDPPTFGGGTKVEIKR
notes: Humanized, human IgG1/kappa (hzVH03 + hzVL06)
Take B6: the binding result in assay [1], in assay [2], in assay [3] and in assay [4] was “no binding (tested: 10 µg/ml)” throughout. Besides, the EC50 was 0.0831 µg/mL in assay [5] and 0.0663 µg/mL in assay [7]. Also, in assay [6], the “EC50, inhibition” value worked out at 0.0017 µg/mL.

B7: 164C11B8_hzH1L1_hIgG1 (antibody, V domains shown)
VH: EVQLLESGGGLVQPGGSLRLSCAASGFTFSTYTMSWVRQAPGKGLEWVSTINSGGDNTYYPDSVKGRFTISRDNSKNTLYLQMNSLRAEDTAVYYCATYRPYYYGSVLDYWGQGTTVTVSS
VL: DIVMTQSPDSLAVSLGERATINCKASQSVDYDGNSYVNWYQQKPGQPPKLLIYGASNLESGVPDRFSGSGSGTDFTLTISSLQAEDVAVYYCQQSDEDPWTFGGGTKVEIKR
As for B7, the EC50 came to 0.0429 µg/mL in assay [5] and 0.158 µg/mL in assay [7].

B8: 164C11B8_hzH3L1_hIgG1 (antibody, V domains shown)
VH: EVQLLESGGGLVQPGGSLRLSCAASGITFSTYTMSWVRQAPGKGLEWVATINSGGDNTYYPDSVKGRFTISRDNSKNTLYLQMNSLRAEDTAVYYCATYRPYYYGSVLDYWGQGTTVTVSS
VL: DIVMTQSPDSLAVSLGERATINCKASQSVDYDGNSYVNWYQQKPGQPPKLLIYGASNLESGVPDRFSGSGSGTDFTLTISSLQAEDVAVYYCQQSDEDPWTFGGGTKVEIKR
Regarding B8, the EC50 in assay [5] turned out to be 0.0675 µg/mL.

B9: 164C11B8_hzH2L1_hIgG1 (antibody, V domains shown)
VH: EVQLLESGGGLVQPGGSLRLSCAASGFTFSTYTMSWVRQAPGKGLEWVATINSGGDNTYYPDSVKGRFTISRDNSKNTLYLQMNSLRAEDTAVYYCATYRPYYYGSVLDYWGQGTTVTVSS
VL: DIVMTQSPDSLAVSLGERATINCKASQSVDYDGNSYVNWYQQKPGQPPKLLIYGASNLESGVPDRFSGSGSGTDFTLTISSLQAEDVAVYYCQQSDEDPWTFGGGTKVEIKR
Take B9: the EC50 turned out to be 0.104 µg/mL in assay [5] and 0.252 µg/mL in assay [7].

B10: 164C11B8_hzH4L1_hIgG1 (antibody, V domains shown)
VH: EVQLLESGGGLVQPGGSLRLSCAASGITFSTYTMSWVRQAPGKRLEWVATINSGGDNTYYPDSVKGRFTISRDNSKNTLYLQMNSLRAEDTAVYYCATYRPYYYGSVLDYWGQGTTVTVSS
VL: DIVMTQSPDSLAVSLGERATINCKASQSVDYDGNSYVNWYQQKPGQPPKLLIYGASNLESGVPDRFSGSGSGTDFTLTISSLQAEDVAVYYCQQSDEDPWTFGGGTKVEIKR
With B10, the EC50 in assay [5] amounted to 0.191 µg/mL; in assay [7], 0.31 µg/mL.
